Measurements as given in paper PMC7943553 (2021).
Changes are numbered by the printed parent chain.

T1: P. vivax Reticulocyte Binding Protein 2b, residues 161–1454 (P. vivax strain Salvador I, UniProt A5K736 161-1454, DyLight 488 (NHS ester) in the FRET assay; biotin (BirA site) in the competition ELISA between human mAbs)
T1 chain: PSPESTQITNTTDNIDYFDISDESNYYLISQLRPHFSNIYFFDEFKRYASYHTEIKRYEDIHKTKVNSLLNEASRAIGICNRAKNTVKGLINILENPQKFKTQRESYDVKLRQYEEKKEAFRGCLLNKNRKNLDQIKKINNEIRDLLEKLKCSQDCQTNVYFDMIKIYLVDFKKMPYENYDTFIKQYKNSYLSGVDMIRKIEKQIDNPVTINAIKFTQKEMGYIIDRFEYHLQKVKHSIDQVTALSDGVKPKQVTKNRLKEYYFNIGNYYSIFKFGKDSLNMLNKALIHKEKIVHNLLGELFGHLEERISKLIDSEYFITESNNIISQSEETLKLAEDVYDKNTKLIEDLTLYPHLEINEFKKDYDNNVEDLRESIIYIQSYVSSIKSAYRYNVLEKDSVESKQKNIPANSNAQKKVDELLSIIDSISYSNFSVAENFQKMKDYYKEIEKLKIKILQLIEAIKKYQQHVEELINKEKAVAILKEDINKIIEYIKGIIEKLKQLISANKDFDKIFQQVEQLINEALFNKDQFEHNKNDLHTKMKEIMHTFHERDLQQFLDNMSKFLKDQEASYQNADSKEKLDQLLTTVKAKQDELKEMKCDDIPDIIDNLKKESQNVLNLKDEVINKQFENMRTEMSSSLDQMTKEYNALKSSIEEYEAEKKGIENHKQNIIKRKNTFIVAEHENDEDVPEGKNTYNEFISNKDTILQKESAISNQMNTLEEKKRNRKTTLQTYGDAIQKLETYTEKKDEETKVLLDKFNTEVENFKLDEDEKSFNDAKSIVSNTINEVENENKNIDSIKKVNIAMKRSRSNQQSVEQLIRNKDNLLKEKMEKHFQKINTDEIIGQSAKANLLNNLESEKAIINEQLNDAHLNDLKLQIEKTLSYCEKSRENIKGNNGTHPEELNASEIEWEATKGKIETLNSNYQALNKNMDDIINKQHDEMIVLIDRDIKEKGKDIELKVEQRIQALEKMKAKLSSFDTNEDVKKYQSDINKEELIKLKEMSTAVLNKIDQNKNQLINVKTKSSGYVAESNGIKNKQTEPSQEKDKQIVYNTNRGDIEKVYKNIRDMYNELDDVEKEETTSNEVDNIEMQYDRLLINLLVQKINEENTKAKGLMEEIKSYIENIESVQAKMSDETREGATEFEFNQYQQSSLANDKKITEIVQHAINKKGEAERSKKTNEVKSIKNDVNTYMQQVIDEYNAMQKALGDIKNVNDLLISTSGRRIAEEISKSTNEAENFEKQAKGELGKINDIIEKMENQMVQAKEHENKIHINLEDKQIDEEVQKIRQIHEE

B1: PvRBP2b human mAb 273264 (antibody, V domains shown)
VH: EVQLLESGGGLVRPGGSQRLSCAASGFTFTPYAMTWVRQAPGKGLEWLSTISGSGGSTSYADSVKGRFTISRDNSKNILYLQMDSLRAEDTALYYCTKDKDEYTFGHNAFDVWGRGTMVTVSS
VL: SYELTQAPSVSVAPGQTARITCGGDNIGRTSVHWYQQKPGQAPVLVIFYDNDRPSGIPERFSGSNSGNMATLSISRVEVGDEADYYCQVWDSNNDHPVFGGGTKLTVV
B2: PvRBP2b human mAb 258259 (antibody, V domains shown)
VH: B1 VH with S59Y, I78M, D84N, R87T, R115Q
VL: B1 VL with T30K, S31T, H33N, F48Y
B3: PvRBP2b human mAb 241242 (antibody, V domains shown)
VH: EVQLLESGGGLVQPGGSLRLSCAVSGFTFRNYALSWVRQAPGKGLDWVSTISASGGATYYADSVKGHFTISRDNSKNILYLDMKSLRAEDTAIYYCARDGGSYTPYFFLDSWGQGALVTVSS
VL: SYELTQPASVSVAPGQTAQITCGGNSIGRKSIHWYQHKPGQAPVLVISYDSDRPSGIPERFSGSNSGNTATLTISKVEAGDEADFYCQVRDSDNDHVVFGGGTKLTVL
B4: PvRBP2b human mAb 243244 (antibody, V domains shown)
VH: QVQLVESGGGVVQSGKSLRVSCAASGFTFSSYGMHWVRQAPGKGLEWVAFISYDGDNKYSADSVKGRLTISRDNSKNTLYLQMNSLRPEDTAVYYCAKESNYGENAFDIWGQGTMVTVSS
VL: QSALTQPRSVSGSPGQSVTISCTGTSSDVGFYNFVSWYQHHPGKAPKLIIYDVSERPSGVPDRFSGSKSGNTASLSISGLQPEDEADYYCCSYAGTYTFVFGSGTKVTVL
B5: PvRBP2b human mAb 237235 (antibody, V domains shown)
VH: QVQLVESGGGVVQPGRSLRLSCAASGFMFNSYGMHWVRQAPGKGLEWMAFISYDGSDDYYGDSVKGRITISRDNSKNTLFLHINSLRTEDTAVYYCAKESNYGENAFDVWGHGTMVTVSS
VL: B4 VL with S27N, I49M, S54T, S76T, P82A, D87E, S103H
B6: PvRBP2b human mAb 253245 (antibody, V domains shown)
VH: EVQLVQSGAEVKKPGSSMKVSCKASGGTFNRYVFSWVRQAPGQGLEWMGGILPILETTYYAKNFKGRVTITADESTSTVYMELSSLTSEDTAVYFCARDEHDYVWGSYRPSLTGPWGQGTLVTVSS
VL: QSALTQPPSTSGSPGQSVTISCTGTGIDVGGFSYVSWFQYHPGKAPKLIIFEVTKRPSGVPDRFSGSKSGNTASLTISGLQADDEAEYYCSSYAVNNNFVFGTGTKVTVL
B7: PvRBP2b human mAb 251249 (antibody, V domains shown)
VH: EVQLVESGGGLVKPGGSLRLSCEASGFLFSSYSMNWVRQAPGKGLEWVSSITGYSSEVFYTDSVKGRFTVSRDNSKNSLYLQMDSLRAEDTAVYYCARALTIFGVVITDYWFFDLWGRGTLVTVSS
VL: EIVLTQSPATLSLSPGDRATLSCRASQSVTTFLAWYQQKPGQAPRLLIYDVSNRATGIPARFSGSGSGTDFTLTISSLEPEDFAVYYCQQRSNWGLTFGGGTKVEIK
B8: PvRBP2b human mAb 283284 (antibody, V domains shown)
VH: QVQLQQWGAGLLKPSETLALTCTVYGGSSSGYYWNWIRQSPGKGLEWIGEISDSGSTIYNPSLESRVTMSVDTSKNQFSLKLTSVTAADTAVYYCAKAILTRYNWLDPWSQGTLVTVSS
VL: DIVMTQSPSSLSASVGDRISISCRASQGVNSALAWYQQKPGKAPKLLIYDASTLESGVPSRFSGSGSGTDFALTINSLQPEDFATYYCQQFNSYPLTFGGGTKVEIK

Molecular target: T1, P. vivax Reticulocyte Binding Protein …
Assay: BLI

Question: For B1, which koff is on record?
Answer: 3.02e-05 s⁻¹

Question: How did the koff turn out when B2 was run?
Answer: 7.57e-06 s⁻¹

Question: With B3 as the binder, how does the koff read?
Answer: 2.13e-05 s⁻¹

Question: How did the koff turn out when B4 was run?
Answer: 1.15e-05 s⁻¹

Question: Which koff does the source give for B5 here?
Answer: 3.45e-05 s⁻¹

Question: For B6, which koff is on record?
Answer: 8.17e-06 s⁻¹

Question: For B7, which koff is on record?
Answer: < 1e-06 s⁻¹

Question: B8 was tested. Which koff did it give?
Answer: 6e-05 s⁻¹

Molecular target: T1, P. vivax Reticulocyte Binding Protein …
Assay: BLI
Remark: another data set of the same source

Question: With B1 as the binder, how does the Kd read?
Answer: 0.083 nM

Question: How did the Kd turn out when B2 was run?
Answer: 0.0269 nM

Question: B3 was tested. Which Kd did it give?
Answer: 0.061 nM

Question: B4 was tested. Which Kd did it give?
Answer: 0.0366 nM

Question: With B5 as the binder, how does the Kd read?
Answer: 0.0883 nM

Question: B6 was tested. Which Kd did it give?
Answer: 0.0307 nM

Question: B7 was tested. Which Kd did it give?
Answer: < 0.01 nM

Question: With B8 as the binder, how does the Kd read?
Answer: 0.246 nM

Molecular target: T1, P. vivax Reticulocyte Binding Protein …
Assay: BLI; representative sensorgram

Question: B1 was tested. Which Kd did it give?
Answer: < 0.01 nM

Question: B2 was tested. Which Kd did it give?
Answer: < 0.01 nM

Question: B3 was tested. Which Kd did it give?
Answer: < 0.01 nM

Question: How did the Kd turn out when B4 was run?
Answer: < 0.01 nM

Question: B5 was tested. Which Kd did it give?
Answer: 0.1 nM

Question: With B6 as the binder, how does the Kd read?
Answer: < 0.01 nM

Question: Which Kd does the source give for B7 here?
Answer: < 0.01 nM

Question: Which Kd does the source give for B8 here?
Answer: 0.1 nM
